In article PMC6823927:
Non-standard residues stand in square brackets, D forms with d. No end group written: not given here. Dip = N[C@H](C(=O)O)C(c1ccccc1)c1ccccc1

What was measured:
[1] = molecular target: 175Cys-IgG1 (meditope-enabled trastuzumab IgG1 with Ala175 of the heavy chain changed to cysteine); assay: disulfide conjugation, dye-antibody ratio
[2] = molecular target: 175Cys-Fab (meditope-enabled trastuzumab Fab with Ala175 of the heavy chain changed to cysteine); assay: cross-linking

| stoichiometry N [1] [dyes per IgG] | stoichiometry N (meditope per Fab) [2] | Binder |
| --- | --- | --- |
| 1.8 |  | SQFD[Dip]CTRRLQSGGSK-Alexa647 [SQFDA(Ph)2…-Alexa647 meditope] |
|  | 1 | SQFD[Dip]CTRRLQSGGSK [SQFDA(Ph)2… meditope] |
